# Results from US20160031958.
# T1: FLAG-REST (810-910)-GFP reporter peptide, unmutated
# T1 chain: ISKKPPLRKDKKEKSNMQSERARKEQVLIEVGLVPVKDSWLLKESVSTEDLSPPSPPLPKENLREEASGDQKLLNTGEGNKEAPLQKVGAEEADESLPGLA
# T2: FLAG-REST (unmutated, full-length), Q13127
# T2 chain: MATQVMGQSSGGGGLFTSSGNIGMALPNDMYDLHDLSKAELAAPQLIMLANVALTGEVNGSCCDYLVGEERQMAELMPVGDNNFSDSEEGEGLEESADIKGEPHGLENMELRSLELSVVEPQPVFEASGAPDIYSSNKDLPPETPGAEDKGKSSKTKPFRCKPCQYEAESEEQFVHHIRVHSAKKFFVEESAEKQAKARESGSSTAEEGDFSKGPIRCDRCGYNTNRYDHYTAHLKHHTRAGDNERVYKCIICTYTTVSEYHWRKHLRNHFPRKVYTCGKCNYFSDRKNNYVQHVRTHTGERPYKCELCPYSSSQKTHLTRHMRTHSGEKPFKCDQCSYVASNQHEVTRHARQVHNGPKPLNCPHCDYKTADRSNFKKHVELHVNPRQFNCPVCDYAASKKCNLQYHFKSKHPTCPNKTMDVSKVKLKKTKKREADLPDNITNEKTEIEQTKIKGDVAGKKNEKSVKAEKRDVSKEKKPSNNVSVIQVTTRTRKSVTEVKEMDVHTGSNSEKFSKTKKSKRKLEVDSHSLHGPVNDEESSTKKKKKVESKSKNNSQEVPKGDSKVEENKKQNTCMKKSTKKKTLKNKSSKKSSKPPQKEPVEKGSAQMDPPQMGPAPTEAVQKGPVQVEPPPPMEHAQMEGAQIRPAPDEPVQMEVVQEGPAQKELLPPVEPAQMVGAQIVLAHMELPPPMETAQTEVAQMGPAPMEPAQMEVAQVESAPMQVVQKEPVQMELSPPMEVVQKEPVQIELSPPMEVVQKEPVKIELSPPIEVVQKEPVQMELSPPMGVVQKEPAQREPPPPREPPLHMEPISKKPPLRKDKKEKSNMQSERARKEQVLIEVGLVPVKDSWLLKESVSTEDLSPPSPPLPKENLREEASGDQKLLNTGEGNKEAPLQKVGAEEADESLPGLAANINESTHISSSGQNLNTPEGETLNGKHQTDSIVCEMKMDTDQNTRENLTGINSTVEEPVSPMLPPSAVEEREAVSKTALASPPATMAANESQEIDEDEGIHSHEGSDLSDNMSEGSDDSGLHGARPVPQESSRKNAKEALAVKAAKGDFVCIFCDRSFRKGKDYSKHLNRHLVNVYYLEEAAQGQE
# B1: FLAG-CTDSP1 (protein)
# chain: MDSSAVITQISKEEARGPLRGKGDQKSAASQKPRSRGILHSLFCCVCRDDGEALPAHSGAPLLVEENGAIPKQTPVQYLLPEAKAQDSDKICVVIDLDETLVHSSFKPVNNADFIIPVEIDGVVHQVYVLKRPHVDEFLQRMGELFECVLFTASLAKYADPVADLLDKWGAFRARLFRESCVFHRGNYVKDLSRLGRDLRRVLILDNSPASYVFHPDNAVPVASWFDNMSDTELHDLLPFFEQLSRVDDVYSVLRQPRPGS
# Tests used:
# [1] = biological target: T1, FLAG-REST (810-910)-GFP reporter …
# [2] = biological target: T2, FLAG-REST (unmutated, full-length), …
protein,measurement,setting,value
B1,in-gel GFP fluorescence on native gel (mobility shift),[1],Dephosphorylation by CTDSP1 was also observed in the REST reporter peptides
same,Western blot with REST phospho-specific polyclonal antibody,[2],exogenously expressed FLAG-CTDSP1 dephosphorylated these sites in full-length REST
